The source of these data is publication PMC7039645 (mAbs, 2020).

B1: F9.13.7 (antibody, V domains shown)
VH: QVQLQQPGAELVKPGASVKLSCKASGYTFTSYWMHWVKQGPGQGLEWIGEIDPSDSYPNYNEKFKGKATLTVDKSSSTAYMQLSSLTSEDSAVYYCASLYYYGTSYGVLDYWGQGTSVTVSS
VL: DIQMTQTTSSLSASLGDRVTISCRASQDISNYLNWYQKKPDGTVKLLIYYTSRLHSGVPSRFSGSGSGTDYSLTIRNLEQEDIATYFCQQGYTLPYTFGGGTKLEIK
B2: hu4D5-g3.1 Fab (Fab, V domains shown)
VH: EVQLVESGGGLVQPGGSLRLSCAASGFNIKDTYIHWVRQAPGKGLEWVARIYPTNGYTRYADSVKGRFTISADTSKNTAYLQMNSLRAEDTAVYYCARGHYSSGHPFDYWGQGTLVTVSS
VL: not shown
B3: hu4D5-g3.2 Fab (Fab, V domains shown)
VH: EVQLVESGGGLVQPGGSLRLSCAASGFNIKDTYIHWVRQAPGKGLEWVARIYPTNGYTRYADSVKGRFTISADTSKNTAYLQMNSLRAEDTAVYYCARGIGNGAEGMDYWGQGTLVTVSS
VL: not shown
B4: hu4D5-g2.2 Fab (Fab, V domains shown)
VH: EVQLVESGGGLVQPGGSLRLSCAASGFNIKDTYIHWVRQAPGKGLEWVARIYPTNGYTRYADSVKGRFTISADTSKNTAYLQMNSLRAEDTAVYYCARSHALVYGLIDYWGQGTLVTVSS
VL: not shown
B5: hu4D5-g2.1 Fab (Fab, V domains shown)
VH: EVQLVESGGGLVQPGGSLRLSCAASGFNIKDTYIHWVRQAPGKGLEWVARIYPTNGYTRYADSVKGRFTISADTSKNTAYLQMNSLRAEDTAVYYCARSHKNVMGLVDYWGQGTLVTVSS
VL: not shown
B6: hu2C4-g3.1 IgG1 (antibody, V domains shown)
VH: EVQLVESGGGLVQPGGSLRLSCAASGFTFTDYTMDWVRQAPGKGLEWVADVNPNSGGSIYNQRFKGRFTLSVDRSKNTLYLQMNSLRAEDTAVYYCARLMSYGYFDYWGQGTLVTVSS
VL: DIQMTQSPSSLSASVGDRVTITCKASQDVSIGVAWYQQKPGKAPKLLIYSASYRYTGVPSRFSGSGSGTDFTLTISSLQPEDFATYYCQQYYIYPYTFGQGTKVEIK
B7: hu2C4-g1.1 IgG1 (antibody, V domains shown)
VH: EVQLVESGGGLVQPGGSLRLSCAASGFTFTDYTMDWVRQAPGKGLEWVADVNPNSGGSIYNQRFKGRFTLSVDRSKNTLYLQMNSLRAEDTAVYYCARAIAGGVLLDYWGQGTLVTVSS
VL: DIQMTQSPSSLSASVGDRVTITCKASQDVSIGVAWYQQKPGKAPKLLIYSASYRYTGVPSRFSGSGSGTDFTLTISSLQPEDFATYYCQQYYIYPYTFGQGTKVEIK
B8: hu2C4-g2.2 IgG1 (antibody, V domains shown)
VH: EVQLVESGGGLVQPGGSLRLSCAASGFTFTDYTMDWVRQAPGKGLEWVADVNPNSGGSIYNQRFKGRFTLSVDRSKNTLYLQMNSLRAEDTAVYYCARSSRPPWFFDYWGQGTLVTVSS
VL: DIQMTQSPSSLSASVGDRVTITCKASQDVSIGVAWYQQKPGKAPKLLIYSASYRYTGVPSRFSGSGSGTDFTLTISSLQPEDFATYYCQQYYIYPYTFGQGTKVEIK
B9: hu2C4-g2.1 IgG1 (antibody, V domains shown)
VH: EVQLVESGGGLVQPGGSLRLSCAASGFTFTDYTMDWVRQAPGKGLEWVADVNPNSGGSIYNQRFKGRFTLSVDRSKNTLYLQMNSLRAEDTAVYYCARSSTPPFFMDYWGQGTLVTVSS
VL: DIQMTQSPSSLSASVGDRVTITCKASQDVSIGVAWYQQKPGKAPKLLIYSASYRYTGVPSRFSGSGSGTDFTLTISSLQPEDFATYYCQQYYIYPYTFGQGTKVEIK
B10: hu2C4-g1.2 IgG1 (antibody, V domains shown)
VH: EVQLVESGGGLVQPGGSLRLSCAASGFTFTDYTMDWVRQAPGKGLEWVADVNPNSGGSIYNQRFKGRFTLSVDRSKNTLYLQMNSLRAEDTAVYYCARAITNEVLLDYWGQGTLVTVSS
VL: DIQMTQSPSSLSASVGDRVTITCKASQDVSIGVAWYQQKPGKAPKLLIYSASYRYTGVPSRFSGSGSGTDFTLTISSLQPEDFATYYCQQYYIYPYTFGQGTKVEIK
B11: hu2C4-g3.2 IgG1 (antibody, V domains shown)
VH: EVQLVESGGGLVQPGGSLRLSCAASGFTFTDYTMDWVRQAPGKGLEWVADVNPNSGGSIYNQRFKGRFTLSVDRSKNTLYLQMNSLRAEDTAVYYCARLLAYGYLDYWGQGTLVTVSS
VL: DIQMTQSPSSLSASVGDRVTITCKASQDVSIGVAWYQQKPGKAPKLLIYSASYRYTGVPSRFSGSGSGTDFTLTISSLQPEDFATYYCQQYYIYPYTFGQGTKVEIK

One assay addresses hen egg-white lysozyme (chicken (hen egg-white), UniProt P00698). The assay can be described thus: SPR. On the technique in general: Surface plasmon resonance follows binding to a sensor surface in real time, without labels.
Consider B1, for which the binding result is recorded as “binds”.

In another assay the target is T1, human epidermal growth factor receptor 2 (Homo sapiens, UniProt P04626). The experiment in a line: SPR.
As a reminder, the Kd is the constant that tells how readily two partners part at equilibrium. One may read the koff as the first-order rate constant of dissociation. A high value points to a short-lived complex. For orientation: kon means the second-order rate constant of association. Low readings indicate slow association, high ones fast association. For the molecule B2, binding was characterised by a dissociation constant (Kd) of 0.39 nM, the koff came to 0.00032 s⁻¹ and the kon worked out at 960000 M⁻¹ s⁻¹.
B3 yielded a Kd of 1.8 nM, a koff of 0.0011 s⁻¹ and a kon of 660000 M⁻¹ s⁻¹.
With B4, the Kd was 0.33 nM, the koff worked out at 0.00043 s⁻¹ and the kon was found to be 1.8e+06 M⁻¹ s⁻¹.
For B5 the same measures were 0.27 nM, 0.00035 s⁻¹ and 1.6e+06 M⁻¹ s⁻¹.

For the next assay, the target named is T1, human epidermal growth factor receptor 2. The experiment in a line: SPR. The source holds these as a separate data set.
B6 registered a Kd of 6.4 nM, a koff of 0.0004 s⁻¹ and a kon of 63000 M⁻¹ s⁻¹.
Molecule B7 registered a Kd of 25 nM, a koff of 0.0012 s⁻¹ and a kon of 48000 M⁻¹ s⁻¹.
Regarding B8, the Kd was determined as 23 nM, the koff amounted to 0.0015 s⁻¹ and the kon stood at 65000 M⁻¹ s⁻¹.
The molecule B9 returned a Kd of 25 nM, a koff of 0.00096 s⁻¹ and a kon of 39000 M⁻¹ s⁻¹.
Take B10: the Kd is 28 nM, the koff was found to be 0.0014 s⁻¹ and the kon worked out at 49000 M⁻¹ s⁻¹.
On to B11, for which the Kd came out at 9.9 nM, the koff was 0.00057 s⁻¹ and the kon was 58000 M⁻¹ s⁻¹.
